Measurements taken from patent publication US20210253725A1 (BIONTECH, published 2021).

T1: CD134 expressed on the cell surface of HT1080_OX40 cells (human, UniProt P43489 29-277)
T1 sequence (looked up): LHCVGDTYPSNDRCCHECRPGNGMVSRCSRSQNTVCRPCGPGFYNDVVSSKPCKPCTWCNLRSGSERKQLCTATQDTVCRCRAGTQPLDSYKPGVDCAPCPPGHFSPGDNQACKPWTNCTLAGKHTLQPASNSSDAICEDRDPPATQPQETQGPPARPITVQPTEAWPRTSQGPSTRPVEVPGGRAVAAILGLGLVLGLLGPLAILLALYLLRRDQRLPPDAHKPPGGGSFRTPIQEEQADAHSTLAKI

T2: CD134 protein (His-tagged, Sino Biological Inc. 10481-H08H) (human, UniProt P43489 29-216)
T2 construct: bought protein coated on ELISA plates; also called OX40; TNFRSF4; not shown: His tag
T2 sequence (looked up): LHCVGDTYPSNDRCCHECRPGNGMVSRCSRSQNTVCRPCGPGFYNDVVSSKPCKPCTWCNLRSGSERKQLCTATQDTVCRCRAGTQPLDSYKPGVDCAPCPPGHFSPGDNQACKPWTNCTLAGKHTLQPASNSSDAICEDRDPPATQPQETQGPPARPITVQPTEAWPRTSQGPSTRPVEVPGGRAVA

B1: P018.S.11.A.H05 (antibody, V domains shown)
VH: QQRLVESGGGLVKPGASLTLTCTASGFSFSSGYDMCWVRQAPGKGLEWVGCIDTATDTIYYASWAPGRFTISKTSSTMVTLQMTSLTAADTATYFCARSVGGVDYAIDLWGPGTLVTVSS
VL: AYDMTQTPVSVEVPVGGTVTIKCQASQNIGSRLVWYQQKPGQSPKFLIYYASNLASGVSSRFKGSGSGTQFTLTISDVQSDNAATYYCQQTYSYSDVDDTFGGGTEVVVK
notes: V regions on human Ig constant parts; also called AB134_48
B2: P018.S.12.A.D03 (antibody, V domains shown)
VH: QERLVESGGGLVKPGASLTLTCTASGFSFSSGYDMCWVRQAPGKGLEWVGCIDTGTGTIYYASWAPGRFTISETSSTMVTLQMTSLTAADTATYFCARSVGGYDYAIDLWGPGTLVTVSS
VL: AYDMTQTPASVEVPVGGTVTIKCQASQNIGSRLVWYQQKPGQSPKFLIYYASNLASGVSSRFKGSGSGTQFTLTISDVQSDNAATYYCQQTYSYSDVDDTFGGGTEVVVK
notes: V regions on human Ig constant parts; also called AB134_68
B3: P018.S.11.A.E02 (antibody, V domains shown)
VH: QEQLEESGGDLVKPEGSLTLTCTASGFSFNVDYYMCWVRQAPGKGLEWIACIYVGSEGSTYYASWAKGRFTISKTSSTTVTLQMTSLTAADTATYFCARHYAGYAGYNYATDYYFTLWGPGTLVTVSS
VL: DIVMTQTPSSVSAGVGGTVTINCQASQSVTNFLSWYQQKPGQPPKLLIYGASTLASGVPSRFKGSGSGTEFTLTISGMKAEDVATYYCQSGYYSATFGAGTKVEIK
notes: V regions on human Ig constant parts; also called AB134_33
B4: P018.S.11.A.A03 (antibody, V domains shown)
VH: QSLEESGGDLVKPGASLTLPCTASGFTLSGYWMCWVRQAPGKGLEWIGCIYNGDGSTYYASWAKGRFTISKTSSTTVTLQMTSLTAADTATYFCARDSNGWGAYGLWGPGTLVTVSS
VL: AIEMTQTPSSVSAAVGGTVTIDCQASQSIGSYLSWYQQKPGQPPKLLIYDASDLASGVPSRFSGSGSGTEFTLTISGVQSDDAATYYCQGGYYSSATEIAFGGGTEVVVK
notes: V regions on human Ig constant parts; also called AB134_20
B5: P018.S.12.A.E03 (antibody, V domains shown)
VH: QSVEESGGRLVTPGTPLTLTCTVAGIDLNICGMSWVRQAPGKGLEWIGIIYPSDYTYYATWAKGRFTISKTSTTVDLKITSPTTEDTATYFCARGLGHAWSHFDLWGQGTLVTVSS
VL: AFELTQTPASVSEPVGGTVTIKCQASQSIGSDLAWYQQKPGQPPKLLIYSVSNLPSGVSSRFKGSRSGTEYTLTISDLESADAATYYCQSYYGTITTGYIAFGGGTEVVVK
notes: V regions on human Ig constant parts; also called AB134_74
B6: P018.S.12.A.F02 (antibody, V domains shown)
VH: QSLEESGGRLVTPGTPLTLTCTASGFSLIKSHINWVRQAPGKGLEWVGGIAYDDNTYYANWAKGRFTISKTSTTVDLRITSPTTADTATYFCAREDSSGWGSFNLWGQGTLVTVSS
VL: AQVLTQTPSSVSAAVGGTVTISCQSSQSVYATNQLSWFQQKSGQPPKRLIYSASTLASGVSSRFKGSGSGTQFTLTISGVQSDDAATYYCQGAYDCSGGDCRAFGGGTEVVVK
notes: V regions on human Ig constant parts; also called AB134_78
B7: P018.S.12.A.B06 (antibody, V domains shown)
VH: QEQLEESGGGLVQPEGSLTLTCTASGFSFSYYWMCWVRQAPGKGLEWSACIGTGSGSTYYATWAKGRFTISKTSSTTVTLQMTSLTAADTATYFCARDWGIYSSDAYYMDYFNLWGPGTLVTVSS
VL: AFELTQTPASVEAAVGGTVTIKCQASQSIGSYLAWYQQKPGQPPKPLIYEASKLASGVSSRFKGSGSGTQFTLTISGVESADAATYYCQQGGISTNVQNAFGGGTEVVVK
notes: V regions on human Ig constant parts; also called AB134_60
B8: P018.S.12.A.E01 (antibody, V domains shown)
VH: QSVEESGGRLVTPGGSLTLTCTVSGIDLSSADMSWVRQAPGEGLEYIGWINNVGSAYYASWAKGRFSISKTSSTTVDLKVTSLTTEDTATYFCVRGYWLDLWGQGTLVTVSS
VL: AAVLTQTPSPVSAAVGGTVSISCQSSVNVYNNNYLAWFQQKPGQPPKLLIYAASTLPSGVSSRFSGNGSGTEFTLTISGVQSDDAATYYCVGYYSSTDDNGFGGGTEVVVK
notes: V regions on human Ig constant parts; also called AB134_72
B9: P018.S.12.A.F06 (antibody, V domains shown)
VH: QSLEESGGDLVKPGGTLTLTCKASGIDFNNYYVCWVRQAPGKGLEWVGCIYTGSGSTYYASWAKGRFTITRSSSTTVTLQMTSLTAADTATYFCARPEFYDTYGYAGYGYATPNYFNFWGPGTLVTVSS
VL: AAVLTQTPSPVSAAVGGTVTIKCQASQSVYNNNLLSWYQQKPGQPPKLLMYDASNLASGVPDRFSGSGSGTQFTLTISDLESDDAATYYCLGGYDDDADYNAFGGGTEVVVA
notes: V regions on human Ig constant parts; also called AB134_82
B10: P018.S.12.A.A06 (antibody, V domains shown)
VH: QSVEESGGRLVTPGTPLTLTCTVSGFSLSSFAMTWVRQAPGKGLEWIGIISSSGTTYYASWAKGRFTISKTSTTVDLRITSPTTEDTATYFCASHYDDYGDSDALDPWGPGTLVTVSS
VL: AAVMTQTPSPVSAAVGGTVTINCQASEDIYSNLAWFQQKPGQPPKLLIYRASTLASGVPSRFSGSGSGTEFTLTISGLQSDDAATYYCLGVDRHISDRAFGGGTEVVVK
notes: V regions on human Ig constant parts; also called AB134_55
B11: P018.S.11.A.G05 (antibody, V domains shown)
VH: QSLEESGGDLVKPGASLTLTCAASGFSLNNWVMCWVRQAPGKGLEWIACIDIVGSGSTHYATWAKGRFTMSKASSITVTLQMTSLTAADTATYFCARGVNGDGNLNLWGPGTLVTVSS
VL: DVVMTQTPASVSEPVGGAVTIKCQASETISNYLAWYQQKPGQRPKLLIYGASNLESGVPSRFKGSGSGTEFTLTISDLESADAATYYCQCTYVGDSYTAFGGGTEVVVK
notes: V regions on human Ig constant parts; also called AB134_45
B12: P018.S.11.A.A04 (antibody, V domains shown)
VH: QSVEESGGRLVTPGTPLTLTCTVSGFSLSSYAMGWVRQAPGKGLEYIGVISTSANTYYATWAKGRFTISKTSTTVDLRITSPTTEDTATYFCARVVGLYDSYGDVDATYDAFDPWGPGTLVTVSS
VL: AQVLTQTASPVSAAVGDTVTINCQSSQSVYNNNLLSWYQQKPGQPPKLLVYDASNLASGVPHRFSGSGSGTQFTLTISGVQSDDAATYYCLGGYDDDADIYAFGGGTEVVVK
notes: V regions on human Ig constant parts; also called AB134_21
B13: P018.S.12.A.B03 (antibody, V domains shown)
VH: QSLEESGGRLVTPGTPLTLICTVSGIDLSSGAMGWVRQAPGKGLEYIGYIYTGSGTTSYASWVNGRFTISMTSTTVDLKITSPTTEDTATYFCARDAASSYWGHFTLWGQGTLVTVSS
VL: DIVMTQTPASVEAAVGGTVTIKCQASENIYSSLAWYQQKPGQPPKLLIYRTSTLASGVPSRFKGSGSGTQFTLTISDLESDDAATYYCQSYYHNSGGGYDYGFGGGTEVVAK
notes: V regions on human Ig constant parts; also called AB134_58
B14: P018.S.12.A.C06 (antibody, V domains shown)
VH: QSVEESGGRLVKPDETLTLICTVSGIDLSINVVGWVRQAPGEGLEWIGDISSHGDTIYATWAKGRFTISKTSTTVDLKMTSLTASDTATYFCARYVGDGYYDLWGPGTLVTVSS
VL: AYDMTQTPASVSAAVGGTVTINCQASQSISNLLAWYQQKPGQRPKLLIYDTSKLASGVPSRFKGSGSGTQFTLTISDLESADAATYYCQQSYSSSNIANLFGGGTEVVVK
notes: V regions on human Ig constant parts; also called AB134_66
B15: P018.S.04.A.C06 (antibody, V domains shown)
VH: QSVEESGGRLVTPGTPQTLTCTVSGFSLSSYAMSWVRQAPGKGLEWIGIISSSGSTYYASWAKGRFTISKTSTTVDLKITSPTTEDTATYFCARDAYPSYSPFGYYFTLWGQGTLVTVSS
VL: AIKMTQTPASVSAAVGGTVSINCQASEDIYNYLAWYQQKPGQPPKLLIYDASDLASGVPSRFKGSGSGKQFTLTISGVQSDDAATYYCQHGYFTYSGENAFGGGTEVVVK
notes: V regions on human Ig constant parts; also called AB134_8

Key:
[1] = target: T1, CD134 expressed on the cell surface of …; test: cell-based or functional assay
[2] = target: T1, CD134 expressed on the cell surface of …; test: HT1080_OX40 cells, imaging
[3] = target: T2, CD134 protein (His-tagged, Sino …); test: ELISA, coated His-tagged CD134
Further: test concentration or dose not given here.

Binder	Functional assay Cross-linked by F(ab′)2 fragment IL-8 [1] [abs. corr.]	Functional assay IL-8 [1] [abs. corr.]	Cellular binding assay [RFU] [2] [RFU]	ELISA [abs. corr.] [3] [abs. corr.]
B1	2.01	1.21	478	1.69
B2	1.83	0.707	559	1.34
B3	2.04	0.214	525	2.65
B4	2.01	1.38	459	1.93
B5	2	0.461	482	2.04
B6	1.99	0.185	549	2.07
B7	2.07	1.84	451	1.4
B8	2.04	0.439	463	2.55
B9	2.05	0.374	500	1.65
B10	2.04	0.062	515	1.61
B11	2.05	0.031	531	2.36
B12	1.99	0.533	582	2.1
B13	2.05	1.07	446	1.18
B14	2.1	0.881	525	2.35
B15	2	0.538	458	2.5
